Data on one substance can be found in article PMC2949298.

The test deals with 21c Fab (human). The experiment in a line: SPR. Background: In SPR one partner is held on a chip, and binding of the other changes the refractive index at the surface.

Turning to “CAP210_(V1V2) (core CAP210 gp120 containing the V1V2 loop) with sCD4 (complex)”, the dissociation constant (Kd) (commonly the constant that tells how readily two partners part at equilibrium) was determined as 92 nM.
